According to article PMC8500521:

Legend:
[1] = target: 6HB (HR1-linker-HR2) of SARS-CoV-2 fusion protein (SARS-CoV-2) (UniProt P0DTC2); test: AUC; sedimentation velocity, 50,000 rpm, 20 C, 50 mM NaCl, 25 mM sodium phosphate pH 6.0, no detergent; monomer to tetramer
[2] = target: 6HB (HR1-linker-HR2) of SARS-CoV-2 fusion protein (SARS-CoV-2) (UniProt P0DTC2); test: SEC-MALS; Superose-12, room temperature, 20 mM sodium phosphate pH 6.0, 30 mM NaCl; injected 65 uM 6HB, 90 uM HR1
[3] = target: HR1 (heptad repeat 1) domain of SARS-CoV-2 spike protein (SARS-CoV-2) (UniProt P0DTC2); test: AUC; sedimentation velocity, 50,000 rpm, 20 C, 50 mM NaCl, 25 mM sodium phosphate pH 6.0, no detergent; monomer to tetramer

Row | Substance | stoichiometry N [1] | stoichiometry N [2] | stoichiometry N [3]
1 | 6HB (HR1-linker-HR2) of SARS-CoV-2 fusion protein (from UniProt P0DTC2 918-965; P0DTC2 1171-1207) | 3 | 3 | –
2 | HR1 (heptad repeat 1) domain of SARS-CoV-2 spike protein (from UniProt P0DTC2 918-965) (domain or fragment) | – | – | 4
